From article PMC4060006, “SM proteins Sly1 and Vps33 co-assemble with Sec17 and SNARE complexes to oppose SNARE disassembly by Sec18” (eLife, 2014)

T1: Sec17–Golgi SNARE complex (Sec17 bound to the Golgi SNARE complex on GST-Sed5 SNARE domain) (S. cerevisiae, UniProt Q01590 170-319; P25385 1-222; P22804 1-123; P22214 1-188; P32602 1-292)
T1 construct: Sed5, Qa-SNARE, S. cerevisiae, aa170-319; Bos1, Qb-SNARE, S. cerevisiae, aa1-222; Bet1, Qc-SNARE, S. cerevisiae, aa1-123; Sec22, R-SNARE, S. cerevisiae, aa1-188; Sec17, S. cerevisiae; in most experiments Sec17 and Sly1 were added together to the immobilised SNARE complex; also called SNARE-Sec17 complex; Sec17–SNARE complex; source: assembled on …
T1 sequence (looked up) 1: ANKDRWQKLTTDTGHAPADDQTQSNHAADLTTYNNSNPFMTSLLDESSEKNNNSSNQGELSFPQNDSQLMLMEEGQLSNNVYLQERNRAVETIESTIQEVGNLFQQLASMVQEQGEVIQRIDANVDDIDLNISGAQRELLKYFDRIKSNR
T1 sequence (looked up) 2: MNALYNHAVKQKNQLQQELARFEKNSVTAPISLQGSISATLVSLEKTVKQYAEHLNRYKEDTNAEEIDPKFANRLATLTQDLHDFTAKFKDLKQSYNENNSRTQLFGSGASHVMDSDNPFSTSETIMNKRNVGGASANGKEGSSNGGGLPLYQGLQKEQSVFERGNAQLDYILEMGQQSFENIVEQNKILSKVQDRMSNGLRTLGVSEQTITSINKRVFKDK
T1 sequence (looked up) 3: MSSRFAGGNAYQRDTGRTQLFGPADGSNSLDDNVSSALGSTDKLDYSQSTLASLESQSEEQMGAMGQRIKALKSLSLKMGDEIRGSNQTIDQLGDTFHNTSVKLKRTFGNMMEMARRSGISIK
T1 sequence (looked up) 4: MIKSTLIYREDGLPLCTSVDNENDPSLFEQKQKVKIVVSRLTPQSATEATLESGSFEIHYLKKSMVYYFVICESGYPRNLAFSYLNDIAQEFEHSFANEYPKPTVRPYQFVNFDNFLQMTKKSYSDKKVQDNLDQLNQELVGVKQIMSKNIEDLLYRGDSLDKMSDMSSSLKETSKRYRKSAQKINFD
T1 sequence (looked up) 5: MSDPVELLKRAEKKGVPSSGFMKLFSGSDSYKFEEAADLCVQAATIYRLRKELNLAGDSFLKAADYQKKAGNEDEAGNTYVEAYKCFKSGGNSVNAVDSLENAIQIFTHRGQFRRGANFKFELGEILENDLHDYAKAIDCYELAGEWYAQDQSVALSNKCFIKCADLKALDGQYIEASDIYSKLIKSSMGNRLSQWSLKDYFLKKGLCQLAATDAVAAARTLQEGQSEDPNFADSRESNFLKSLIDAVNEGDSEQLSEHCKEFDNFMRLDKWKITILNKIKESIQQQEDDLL

B1: GST-Sed5 full cytoplasmic domain (aa1-319) (domain or fragment, S. cerevisiae, UniProt Q01590 1-319, looked up)
chain: MNIKDRTSEFQQSVLSYKKRNKNFREQQRERLQEKESENFANNTTGNGKSVSEFQKKASGIAHEISSTAQLLSKLAVLAKRKPMFNDNPVEIAELSFLIKRKIYAIEQSLVQLSQLKKTDVNGNTSNQSSKQPSAVQHSKNVVNLLNTQMKNISGSFKDVLEERQRLEMANKDRWQKLTTDTGHAPADDQTQSNHAADLTTYNNSNPFMTSLLDESSEKNNNSSNQGELSFPQNDSQLMLMEEGQLSNNVYLQERNRAVETIESTIQEVGNLFQQLASMVQEQGEVIQRIDANVDDIDLNISGAQRELLKYFDRIKSNR
notes: Sed5, Golgi Qa-SNARE, S. cerevisiae, full cytoplasmic domain aa1-319 with N-peptide and Habc segments, no transmembrane domain; also called GST-Sed5FL; Sed5FL; not shown: GST, N-terminal, kept
B2: Sly1 (full length, aa1-667) (natural protein, S. cerevisiae, UniProt P22213 1-666, looked up)
chain: MAVEEIASRKDISLRDMQISAILKMLFLNKDLNNNDNITTITDDIFNQQEIIWKVLILDIKSTATISSVLRVNDLLKAGITVHSLIKQDRSPLPDVPAIYFVSPTKENIDIIVNDLKSDKYSEFYINFTSSLPRNLLEDLAQQVSITGKSDKIKQVYDQYLDFIVTEPELFSLEISNAYLTLNDPKTTEEEITGLCANIADGLFNTVLTINSIPIIRAAKGGPAEIIAEKLGTKLRDFVINTNSSSTSTLQGNDSLERGVLIILDRNIDFASMFSHSWIYQCMVFDIFKLSRNTVTIPLESKENGTDNTTAKPLATKKYDIEPNDFFWMENSHLPFPEAAENVEAALNTYKEEAAEITRKTGVTNISDLDPNSNNDTVQIQEVVKKLPELTAKKNTIDTHMNIFAALLSQLESKSLDTFFEVEQDPGSTKTRSRFLDILKDGKTNNLEDKLRSFIVLYLTSTTGLPKDFVQNVENYFKENDYDINALKYVYKLREFMQLSNMSLQNKSLEDGSDSAFKPSNLTLSGIYGLTEGKLQGGVGSLISGIKKLLPEKKTIPITNVVDAIMDPLNSSQKNLETTDSYLYIDPKITRGSHTRKPKRQSYNKSLVFVVGGGNYLEYQNLQEWAHSQLHNPKKVMYGSTAITTPAEFLNEISRLGASNSSNNDA
notes: Sly1, Golgi SM protein, S. cerevisiae, printed as full-length aa1-667; construct His6-(tev)-Sly1; as I recall the UniProt entry has 666 residues; the printed 667 may count the stop codon; also called His6-Sly1; Golgi SM protein; source: E. coli (pRIL plasmid), purified (Ni-NTA)

Assays:
Settings in all cases: both partners purified
[1] = target: B2; experiment: pull-down; full cytoplasmic domain of Sed5 (GST-Sed5FL, 500 nM) immobilised without assembled SNARE complex; Sly1 (10 µM) and Sec17; 30°C; Coomassie
[2] = target: T1, Sec17–Golgi SNARE complex (Sec17 bound …); experiment: pull-down; stoichiometry: complexes assembled on immobilised SNARE complex under saturation binding conditions; SDS-PAGE, SYPRO Ruby, band intensities against standard curves of the purified proteins; apparent
[3] = target: T1, Sec17–Golgi SNARE complex (Sec17 bound …); experiment: pull-down; quantitative: immobilised SNARE complex, SM concentration varied, with or without Sec17, 30°C; SYPRO Ruby with standard curves; fractional saturation against free SM, one-site model; apparent (Kdobs), non-equilibrium measurements

binding result [1]	stoichiometry N [2] [Sly1 per SNARE complex]	Kd [3] [nM]	Binder
binds	–	–	B1
–	1	1000 ± 100	B2
